Test results published in publication PMC7540724.

Molecular target: Thermus thermophilus RodA (FLAG-3C-RodA) (Thermus thermophilus) (UniProt Q5SIX3)
Assay: crystal structure

Thermus thermophilus PBP2 (PBP2-3C-PrtC) (enzyme)
stoichiometry N (PBP2 per RodA): 1
